Experimental data as given in patent publication JP2008278814A (dated 2008).

Legend:
[1] = molecular target: T1, ヒトGITR(glucocorticoid-induced tumor necrosis factor receptor-family related gene) (human, UniProt Q9Y5U5 26-241); assay: cell ELISA and flow cytometry of hybridoma supernatant on 293T/GITR cells
T1 construct: whole, on cells; also called TNFRSF18
T1 sequence (looked up): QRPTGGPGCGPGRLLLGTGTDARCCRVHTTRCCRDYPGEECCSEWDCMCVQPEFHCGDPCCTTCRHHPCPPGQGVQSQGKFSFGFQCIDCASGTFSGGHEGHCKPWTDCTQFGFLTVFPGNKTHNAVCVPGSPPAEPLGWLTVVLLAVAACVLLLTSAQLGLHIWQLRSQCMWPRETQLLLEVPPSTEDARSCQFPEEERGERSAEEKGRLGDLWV

[2] = molecular target: T2, GITR断片(アミノ酸翻訳部分N末端1-65番目)−HIDE1の膜貫通領域−mycタグ (human, UniProt Q9Y5U5 26-65); assay: immunoprecipitation from 293T lysate, Western blot with HRP-labelled anti-myc antibody
T2 construct: domain: 膜貫通領域; Includes the signal peptide as encoded; no cleavage site stated; also called N末端1-65番目のGITR断片; not shown: HIDE1 transmembrane region; myc tag
T2 chain: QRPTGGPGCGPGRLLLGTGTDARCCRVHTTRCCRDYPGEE

[3] = molecular target: T3, GITR断片(アミノ酸翻訳部分N末端1-60番目)−HIDE1の膜貫通領域−mycタグ (human); assay: as above
T3 construct: domain: 膜貫通領域; Includes the signal peptide as encoded; no cleavage site stated; also called GITRの1-180塩基長; N末端1-60番目のGITR断片; not shown: HIDE1 transmembrane region; myc tag
T3 chain: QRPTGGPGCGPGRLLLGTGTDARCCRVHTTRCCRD

[4] = molecular target: T4, GITR断片(アミノ酸翻訳部分N末端1-72番目)−HIDE1の膜貫通領域−mycタグ (human, UniProt Q9Y5U5 26-72); assay: as above
T4 construct: domain: 膜貫通領域; also called N末端1-72番目のGITR断片; not shown: HIDE1 transmembrane region; myc tag
T4 chain: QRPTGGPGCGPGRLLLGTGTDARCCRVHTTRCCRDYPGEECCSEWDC

Measured: binding result

B1: 抗ヒトGITRモノクローナル抗体(40-44抗体) (antibody, V domains shown)
VH: QVQLQQSGAELVRPGTSVKVSCKASGYAFSNYLIEWVKQRPGQGLEWIGVINPGSGSTNYNEKFKGKATLTADKSSSTAYMQLSSLTSDDSAVYFCARRTYYYGSNYYAMDYWGQGTSVTVSS
VL: DIQMNQSPSSLSSSLGDTITITCHASQNINVWLSWYQQKPGNIPKLLIYKASNLHTGVPSRFSGSGSGTGFTLTISSLQPEDIATYYCQQGQSYPFTFGSGTKLEIK
notes: Mouse (Balb/c) hybridoma monoclonal antibody; mouse IgG2A and mouse IgG1 were used as controls in different experiments; also called 抗ヒトGITR抗体
binds: all assays above
